Article PMC12712053

What was measured:
[1] = biological target: human Mre11 core (HsMre11c) (human); experiment: SEC
[2] = biological target: human Mre11 core (HsMre11c) (human); experiment: native gel or EMSA

human Mre11 core (HsMre11c) (domain or fragment)
stoichiometry N [1]: 2
stoichiometry N [2]: 2
